By Kd is commonly meant the free concentration of one partner at which half of the binding sites on the other are occupied at equilibrium, for simple one-to-one binding. Low values mean a tighter complex, high ones a looser complex.

For assay [1], the target named is T1, human FLNC domains 18-21 (residues 1943-2408), EEF-tagged (human, UniProt Q14315 1943-2408).
T1 sequence: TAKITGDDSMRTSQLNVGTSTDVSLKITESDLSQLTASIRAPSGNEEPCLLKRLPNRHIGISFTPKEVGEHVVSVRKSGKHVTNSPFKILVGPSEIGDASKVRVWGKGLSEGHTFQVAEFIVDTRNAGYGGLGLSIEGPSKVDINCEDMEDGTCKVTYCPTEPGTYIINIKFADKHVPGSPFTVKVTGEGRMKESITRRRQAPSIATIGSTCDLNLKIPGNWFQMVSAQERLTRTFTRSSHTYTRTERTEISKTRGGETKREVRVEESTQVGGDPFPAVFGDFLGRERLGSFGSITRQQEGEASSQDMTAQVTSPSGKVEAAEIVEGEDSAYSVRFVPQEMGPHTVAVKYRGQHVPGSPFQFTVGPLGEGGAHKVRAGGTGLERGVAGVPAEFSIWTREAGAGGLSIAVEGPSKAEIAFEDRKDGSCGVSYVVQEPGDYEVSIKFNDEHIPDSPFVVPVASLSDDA
The assay is described as follows: native MS.

Assay [2] concerns the target human HspB1 ACD (residues 84-170) (human, UniProt P04792 84-170). Nature of the assay: crystal structure.

Square brackets hold non-standard residues; d marks the D form. Ends that are not written are not given here. pS = N[C@@H](COP(=O)(O)O)C(=O)O

Chain of human HspB1 ACD (residues 84-170) (P04792 84-170): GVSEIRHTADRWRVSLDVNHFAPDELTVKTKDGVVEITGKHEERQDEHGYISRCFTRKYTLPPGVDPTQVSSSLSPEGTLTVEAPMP

Ac-QLSSGVSEI (not fully specified) [HspB1 peptide residues 80-88, phosphorylated] showed a Kd in assay [1] of 110 ± 10 µM. As to Ac-QLSSGVSEI [HspB1 peptide residues 80-88, unphosphorylated], in assay [1], the Kd was found to be 130 ± 17 µM. With ALSRQL[pS]SGVSEI [HspB1 peptide residues 76-88 phosphorylated at Ser82], the binding result in assay [2] is given as “binds”.
